Test results as given in the supplement of paper PMC10065799, “High-throughput profiling of sequence recognition by tyrosine kinases and SH2 domains using bacterial peptide display” (eLife, 2023).
Blank lines part the entries; values can stand above or below the sequence they belong to.

What was measured:
AncSZ = test: phosphorylation enrichment, bacterial display (enrichment ratio); higher = better substrate or ligand; peptides without Tyr show the background
EPHB1 = EPHB1 (UniProt P54762); test: as above
Chain of EPHB1 (P54762 whole entry, looked up): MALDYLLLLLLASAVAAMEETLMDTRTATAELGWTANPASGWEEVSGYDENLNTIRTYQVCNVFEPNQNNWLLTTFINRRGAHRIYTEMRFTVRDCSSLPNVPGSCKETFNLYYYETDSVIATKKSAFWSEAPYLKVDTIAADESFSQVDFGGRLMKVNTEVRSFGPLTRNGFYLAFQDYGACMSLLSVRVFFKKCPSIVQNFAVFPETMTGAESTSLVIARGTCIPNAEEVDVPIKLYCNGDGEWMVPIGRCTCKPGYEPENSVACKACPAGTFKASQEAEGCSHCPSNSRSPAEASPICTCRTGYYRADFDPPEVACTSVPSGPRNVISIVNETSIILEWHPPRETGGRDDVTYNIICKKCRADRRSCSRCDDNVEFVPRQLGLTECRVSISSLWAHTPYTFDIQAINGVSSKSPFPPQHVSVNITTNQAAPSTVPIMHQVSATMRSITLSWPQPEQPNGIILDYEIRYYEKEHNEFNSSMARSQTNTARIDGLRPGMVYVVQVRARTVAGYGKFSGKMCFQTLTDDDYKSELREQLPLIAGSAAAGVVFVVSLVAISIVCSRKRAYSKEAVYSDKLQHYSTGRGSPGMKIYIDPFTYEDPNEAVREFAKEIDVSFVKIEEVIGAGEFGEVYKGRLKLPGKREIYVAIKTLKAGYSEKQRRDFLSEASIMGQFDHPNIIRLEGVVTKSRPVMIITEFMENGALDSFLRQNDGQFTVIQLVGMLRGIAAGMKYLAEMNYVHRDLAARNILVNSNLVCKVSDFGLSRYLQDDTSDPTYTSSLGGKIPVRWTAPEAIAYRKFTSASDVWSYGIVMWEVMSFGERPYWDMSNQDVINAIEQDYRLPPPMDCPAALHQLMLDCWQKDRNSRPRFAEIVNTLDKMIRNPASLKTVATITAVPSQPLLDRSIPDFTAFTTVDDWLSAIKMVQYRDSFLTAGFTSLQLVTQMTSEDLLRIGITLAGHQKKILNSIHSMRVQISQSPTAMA

EPHB2 = EPHB2 (UniProt P29323); test: as above
Chain of EPHB2 (P29323 whole entry, looked up): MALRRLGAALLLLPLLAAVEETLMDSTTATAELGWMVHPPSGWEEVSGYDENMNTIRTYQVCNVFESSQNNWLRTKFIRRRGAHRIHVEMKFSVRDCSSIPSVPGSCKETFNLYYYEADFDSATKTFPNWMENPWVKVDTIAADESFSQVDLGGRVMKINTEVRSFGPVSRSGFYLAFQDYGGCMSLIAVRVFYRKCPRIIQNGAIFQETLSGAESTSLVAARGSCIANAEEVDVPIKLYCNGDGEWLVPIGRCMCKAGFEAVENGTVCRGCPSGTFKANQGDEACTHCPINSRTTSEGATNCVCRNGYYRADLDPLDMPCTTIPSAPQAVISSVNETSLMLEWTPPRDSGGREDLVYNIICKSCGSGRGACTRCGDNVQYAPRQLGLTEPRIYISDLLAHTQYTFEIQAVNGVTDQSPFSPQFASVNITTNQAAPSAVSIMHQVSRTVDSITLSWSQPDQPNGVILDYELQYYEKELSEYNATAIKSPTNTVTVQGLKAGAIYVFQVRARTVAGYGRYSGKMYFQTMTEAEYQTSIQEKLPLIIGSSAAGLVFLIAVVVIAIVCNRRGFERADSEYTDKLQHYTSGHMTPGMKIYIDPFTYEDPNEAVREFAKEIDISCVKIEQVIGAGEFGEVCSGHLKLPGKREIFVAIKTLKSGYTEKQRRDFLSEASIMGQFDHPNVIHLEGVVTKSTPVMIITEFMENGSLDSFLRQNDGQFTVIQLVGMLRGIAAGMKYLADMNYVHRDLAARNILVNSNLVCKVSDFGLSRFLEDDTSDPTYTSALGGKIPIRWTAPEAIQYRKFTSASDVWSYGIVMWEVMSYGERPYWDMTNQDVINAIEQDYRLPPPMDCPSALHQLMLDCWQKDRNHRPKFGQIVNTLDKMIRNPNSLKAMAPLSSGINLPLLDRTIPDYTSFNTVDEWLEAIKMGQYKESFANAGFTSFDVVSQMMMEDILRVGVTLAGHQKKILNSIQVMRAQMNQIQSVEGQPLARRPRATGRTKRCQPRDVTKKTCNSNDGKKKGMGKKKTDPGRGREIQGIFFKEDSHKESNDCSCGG

FGFR1 = FGFR1 (UniProt P11362); test: as above
FGFR3 = FGFR3 (UniProt P22607); test: as above
Chain of FGFR3 (P22607 whole entry, looked up): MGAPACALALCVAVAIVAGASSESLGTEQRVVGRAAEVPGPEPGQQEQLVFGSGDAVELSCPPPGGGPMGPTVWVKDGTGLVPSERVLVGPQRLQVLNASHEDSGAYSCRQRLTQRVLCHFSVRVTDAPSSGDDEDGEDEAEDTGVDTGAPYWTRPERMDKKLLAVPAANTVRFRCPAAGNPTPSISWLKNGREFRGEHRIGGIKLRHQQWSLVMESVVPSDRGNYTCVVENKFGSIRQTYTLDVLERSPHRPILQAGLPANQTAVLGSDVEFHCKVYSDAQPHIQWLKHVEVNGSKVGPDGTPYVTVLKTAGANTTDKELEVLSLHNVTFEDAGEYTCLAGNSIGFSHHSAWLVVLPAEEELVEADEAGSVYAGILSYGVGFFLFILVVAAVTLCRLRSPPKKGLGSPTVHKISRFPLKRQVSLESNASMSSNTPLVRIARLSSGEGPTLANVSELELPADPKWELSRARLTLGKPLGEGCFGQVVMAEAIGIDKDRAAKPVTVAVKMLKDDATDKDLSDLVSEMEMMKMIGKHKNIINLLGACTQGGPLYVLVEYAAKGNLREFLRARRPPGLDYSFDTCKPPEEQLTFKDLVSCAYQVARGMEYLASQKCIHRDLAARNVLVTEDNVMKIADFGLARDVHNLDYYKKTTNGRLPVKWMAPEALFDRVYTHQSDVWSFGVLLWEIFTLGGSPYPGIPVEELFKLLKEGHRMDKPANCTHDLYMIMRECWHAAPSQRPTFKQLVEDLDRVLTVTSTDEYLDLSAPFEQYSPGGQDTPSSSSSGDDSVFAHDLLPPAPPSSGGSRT

Fer (mouse) = test: as above
Fes = Fes (UniProt P07332); test: as above
Chain of Fes (P07332 whole entry, looked up): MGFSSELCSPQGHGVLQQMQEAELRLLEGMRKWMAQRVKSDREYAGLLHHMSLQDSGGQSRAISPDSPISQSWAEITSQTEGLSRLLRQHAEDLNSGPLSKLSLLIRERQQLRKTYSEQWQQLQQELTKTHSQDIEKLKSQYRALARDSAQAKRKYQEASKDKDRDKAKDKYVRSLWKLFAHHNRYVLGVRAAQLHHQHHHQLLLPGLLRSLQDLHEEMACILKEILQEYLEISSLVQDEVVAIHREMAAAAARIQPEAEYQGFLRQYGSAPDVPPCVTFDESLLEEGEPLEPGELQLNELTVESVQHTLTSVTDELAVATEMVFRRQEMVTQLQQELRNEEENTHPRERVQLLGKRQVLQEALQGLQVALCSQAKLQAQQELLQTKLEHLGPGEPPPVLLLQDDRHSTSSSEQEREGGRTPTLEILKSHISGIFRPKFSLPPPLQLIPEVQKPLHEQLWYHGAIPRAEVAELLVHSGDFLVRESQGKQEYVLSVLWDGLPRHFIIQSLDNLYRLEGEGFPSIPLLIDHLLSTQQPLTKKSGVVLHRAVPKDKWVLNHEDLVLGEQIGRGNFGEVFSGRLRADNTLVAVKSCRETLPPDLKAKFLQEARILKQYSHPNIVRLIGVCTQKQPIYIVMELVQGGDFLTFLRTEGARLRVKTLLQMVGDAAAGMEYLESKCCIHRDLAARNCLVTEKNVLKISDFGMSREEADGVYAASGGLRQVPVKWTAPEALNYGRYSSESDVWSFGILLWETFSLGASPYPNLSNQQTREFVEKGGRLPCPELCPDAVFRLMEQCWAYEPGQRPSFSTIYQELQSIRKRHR

Fyn = Fyn (UniProt P06241); test: as above
Chain of Fyn (P06241 whole entry, looked up): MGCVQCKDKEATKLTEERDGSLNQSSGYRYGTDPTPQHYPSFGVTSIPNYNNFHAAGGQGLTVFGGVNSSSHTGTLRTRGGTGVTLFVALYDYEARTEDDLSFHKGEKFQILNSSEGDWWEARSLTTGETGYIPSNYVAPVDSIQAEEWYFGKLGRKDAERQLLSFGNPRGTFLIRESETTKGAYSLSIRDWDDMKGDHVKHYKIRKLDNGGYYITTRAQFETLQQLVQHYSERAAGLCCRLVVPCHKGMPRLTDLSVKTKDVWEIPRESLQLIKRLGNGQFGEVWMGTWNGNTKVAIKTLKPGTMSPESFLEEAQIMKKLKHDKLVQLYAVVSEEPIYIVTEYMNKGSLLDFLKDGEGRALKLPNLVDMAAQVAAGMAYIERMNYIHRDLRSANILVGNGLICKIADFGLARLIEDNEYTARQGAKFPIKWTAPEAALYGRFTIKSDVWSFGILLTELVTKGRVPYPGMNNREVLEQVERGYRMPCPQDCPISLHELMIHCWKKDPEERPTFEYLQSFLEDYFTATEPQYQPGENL

Hck = Hck (UniProt P08631); test: as above
Chain of Hck (P08631 whole entry, looked up): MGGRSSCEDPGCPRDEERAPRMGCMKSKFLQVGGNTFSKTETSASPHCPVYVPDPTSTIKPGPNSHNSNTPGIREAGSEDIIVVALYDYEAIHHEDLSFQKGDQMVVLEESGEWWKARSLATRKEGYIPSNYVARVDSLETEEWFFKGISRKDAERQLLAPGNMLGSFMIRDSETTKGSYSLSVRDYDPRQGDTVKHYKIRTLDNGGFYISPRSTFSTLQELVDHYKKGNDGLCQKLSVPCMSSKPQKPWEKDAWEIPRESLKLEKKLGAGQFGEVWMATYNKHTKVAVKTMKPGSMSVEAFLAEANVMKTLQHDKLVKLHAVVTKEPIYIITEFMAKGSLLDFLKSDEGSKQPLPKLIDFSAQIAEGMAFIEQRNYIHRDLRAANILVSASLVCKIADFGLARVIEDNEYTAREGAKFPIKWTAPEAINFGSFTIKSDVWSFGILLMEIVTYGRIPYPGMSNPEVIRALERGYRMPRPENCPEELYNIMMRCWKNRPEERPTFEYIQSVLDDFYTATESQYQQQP

Jak2 = Jak2 (UniProt O60674); test: as above
MERTK = MERTK (UniProt Q12866); test: as above
c-Abl (mouse) = test: as above
c-Src = test: as above
Grb2 SH2 = Grb2 SH2 (UniProt P62993); test: SH2 binding enrichment of the phosphorylated peptide, bacterial display (enrichment ratio); higher = better substrate or ligand; peptides without Tyr show the background
SHP2-C SH2 = test: as above
c-Src SH2 = test: as above
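Wherever SH2 binding enrichment of the phosphorylated peptide, bacterial display is given: peptide library displayed on the E. coli surface as eCPX fusions, selected cells deep-sequenced, score is each peptide's frequency after selection divided by its frequency in the input.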
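Wherever phosphorylation enrichment, bacterial display is given: 11-residue human phosphosite peptides and single-mutation variants displayed on the E. coli surface, counted by deep sequencing, each peptide's frequency after selection divided by its frequency in the unselected input library; frequency after pTyr selection over input frequency; kinase dosed for 20-30% of maximal phosphorylation in three min.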

- SH2 binding enrichment (Grb2 SH2): 0.631
- SH2 binding enrichment (SHP2-C SH2): 0.65
- SH2 binding enrichment (c-Src SH2): 0.474
Sequence: RRYVYYYSYLL [PTEN_Y177]
- phosphorylation enrichment (AncSZ): 0.814
- phosphorylation enrichment (EPHB1): 0.672
- phosphorylation enrichment (EPHB2): 0.829
- phosphorylation enrichment (FGFR1): 1.88
- phosphorylation enrichment (FGFR3): 1.11
- phosphorylation enrichment (Fer (mouse)): 0.518
- phosphorylation enrichment (Fes): 0.768
- phosphorylation enrichment (Fyn): 0.771
- phosphorylation enrichment (Hck): 0.764
- phosphorylation enrichment (Jak2): 0.986
- phosphorylation enrichment (MERTK): 3.68
- phosphorylation enrichment (c-Abl (mouse)): 1.39
- phosphorylation enrichment (c-Src): 0.79

- SH2 binding enrichment (Grb2 SH2): 1.02
- SH2 binding enrichment (SHP2-C SH2): 0.812
- SH2 binding enrichment (c-Src SH2): 0.504
Sequence: KIVQDYLEKFY [MMP8_Y36_T32I]
- phosphorylation enrichment (AncSZ): 0.885
- phosphorylation enrichment (EPHB1): 0.557
- phosphorylation enrichment (EPHB2): 0.735
- phosphorylation enrichment (FGFR1): 0.521
- phosphorylation enrichment (FGFR3): 0.595
- phosphorylation enrichment (Fer (mouse)): 0.428
- phosphorylation enrichment (Fes): 0.975
- phosphorylation enrichment (Fyn): 0.452
- phosphorylation enrichment (Hck): 0.47
- phosphorylation enrichment (Jak2): 0.719
- phosphorylation enrichment (MERTK): 0.483
- phosphorylation enrichment (c-Abl (mouse)): 0.579
- phosphorylation enrichment (c-Src): 0.449

- SH2 binding enrichment (Grb2 SH2): 0.537
- SH2 binding enrichment (SHP2-C SH2): 0.709
- SH2 binding enrichment (c-Src SH2): 0.352
Sequence: NQELIYEGQRL [TBK1_Y354_R357Q]
- phosphorylation enrichment (AncSZ): 1.71
- phosphorylation enrichment (EPHB1): 1
- phosphorylation enrichment (EPHB2): 1.11
- phosphorylation enrichment (FGFR1): 0.628
- phosphorylation enrichment (FGFR3): 0.739
- phosphorylation enrichment (Fer (mouse)): 11.6
- phosphorylation enrichment (Fes): 1.42
- phosphorylation enrichment (Fyn): 7.4
- phosphorylation enrichment (Hck): 7.73
- phosphorylation enrichment (Jak2): 0.956
- phosphorylation enrichment (MERTK): 1.52
- phosphorylation enrichment (c-Abl (mouse)): 2.65
- phosphorylation enrichment (c-Src): 6.85

- SH2 binding enrichment (Grb2 SH2): 0.705
- SH2 binding enrichment (SHP2-C SH2): 0.506
- SH2 binding enrichment (c-Src SH2): 0.655
Sequence: SNKELYEKYMI
- phosphorylation enrichment (AncSZ): 0.896
- phosphorylation enrichment (EPHB1): 0.652
- phosphorylation enrichment (EPHB2): 0.62
- phosphorylation enrichment (FGFR1): 0.482
- phosphorylation enrichment (FGFR3): 0.579
- phosphorylation enrichment (Fer (mouse)): 7.5
- phosphorylation enrichment (Fes): 0.802
- phosphorylation enrichment (Fyn): 0.593
- phosphorylation enrichment (Hck): 0.871
- phosphorylation enrichment (Jak2): 0.616
- phosphorylation enrichment (MERTK): 0.597
- phosphorylation enrichment (c-Abl (mouse)): 0.487
- phosphorylation enrichment (c-Src): 0.96

- SH2 binding enrichment (Grb2 SH2): 0.609
- SH2 binding enrichment (SHP2-C SH2): 0.504
- SH2 binding enrichment (c-Src SH2): 1.27
Sequence: RDLHTYIMPAH [PNMT_Y256_R254H]
- phosphorylation enrichment (AncSZ): 1.61
- phosphorylation enrichment (EPHB1): 0.754
- phosphorylation enrichment (EPHB2): 0.725
- phosphorylation enrichment (FGFR1): 0.982
- phosphorylation enrichment (FGFR3): 1.04
- phosphorylation enrichment (Fer (mouse)): 0.564
- phosphorylation enrichment (Fes): 1.24
- phosphorylation enrichment (Fyn): 1.19
- phosphorylation enrichment (Hck): 0.748
- phosphorylation enrichment (Jak2): 0.957
- phosphorylation enrichment (MERTK): 0.601
- phosphorylation enrichment (c-Abl (mouse)): 0.878
- phosphorylation enrichment (c-Src): 0.631

- SH2 binding enrichment (Grb2 SH2): 0.614
- SH2 binding enrichment (SHP2-C SH2): 0.679
- SH2 binding enrichment (c-Src SH2): 0.405
Sequence: PPSELYFVKVD [TERT_Y707_P704S]
- phosphorylation enrichment (AncSZ): 1.19
- phosphorylation enrichment (EPHB1): 0.699
- phosphorylation enrichment (EPHB2): 0.965
- phosphorylation enrichment (FGFR1): 0.815
- phosphorylation enrichment (FGFR3): 0.92
- phosphorylation enrichment (Fer (mouse)): 0.815
- phosphorylation enrichment (Fes): 1.63
- phosphorylation enrichment (Fyn): 0.784
- phosphorylation enrichment (Hck): 1.95
- phosphorylation enrichment (Jak2): 0.925
- phosphorylation enrichment (MERTK): 1.82
- phosphorylation enrichment (c-Abl (mouse)): 0.733
- phosphorylation enrichment (c-Src): 1.26

- SH2 binding enrichment (Grb2 SH2): 1.12
- SH2 binding enrichment (SHP2-C SH2): 1.03
- SH2 binding enrichment (c-Src SH2): 0.919
Sequence: MARDIYQASYY [LTK_Y672_R673Q]
- phosphorylation enrichment (AncSZ): 1.04
- phosphorylation enrichment (EPHB1): 2.55
- phosphorylation enrichment (EPHB2): 3.03
- phosphorylation enrichment (FGFR1): 1.41
- phosphorylation enrichment (FGFR3): 1.19
- phosphorylation enrichment (Fer (mouse)): 1.97
- phosphorylation enrichment (Fes): 0.879
- phosphorylation enrichment (Fyn): 5.45
- phosphorylation enrichment (Hck): 6.75
- phosphorylation enrichment (Jak2): 0.78
- phosphorylation enrichment (MERTK): 5.18
- phosphorylation enrichment (c-Abl (mouse)): 3.09
- phosphorylation enrichment (c-Src): 6.26

The remaining lines, values behind:

Sequence: RLLRGHDQFAF [HLA-B_Y137_YF]
- phosphorylation enrichment (AncSZ): 0.388
- phosphorylation enrichment (EPHB1): 0.327
- phosphorylation enrichment (EPHB2): 0.32
- phosphorylation enrichment (FGFR1): 0.309
- phosphorylation enrichment (FGFR3): 0.472
- phosphorylation enrichment (Fer (mouse)): 0.316
- phosphorylation enrichment (Fes): 0.554
- phosphorylation enrichment (Fyn): 0.289
- phosphorylation enrichment (Hck): 0.405
- phosphorylation enrichment (Jak2): 1.07
- phosphorylation enrichment (MERTK): 0.34
- phosphorylation enrichment (c-Abl (mouse)): 0.716
- phosphorylation enrichment (c-Src): 0.505
- SH2 binding enrichment (Grb2 SH2): 1.06
- SH2 binding enrichment (SHP2-C SH2): 0.724
- SH2 binding enrichment (c-Src SH2): 0.748

Sequence: RELGEYALAEF [ALDH1A3_Y492_YF]
- phosphorylation enrichment (AncSZ): 1.28
- phosphorylation enrichment (EPHB1): 0.857
- phosphorylation enrichment (EPHB2): 0.697
- phosphorylation enrichment (FGFR1): 0.725
- phosphorylation enrichment (FGFR3): 0.784
- phosphorylation enrichment (Fer (mouse)): 0.699
- phosphorylation enrichment (Fes): 1.06
- phosphorylation enrichment (Fyn): 0.77
- phosphorylation enrichment (Hck): 0.661
- phosphorylation enrichment (Jak2): 0.821
- phosphorylation enrichment (MERTK): 0.478
- phosphorylation enrichment (c-Abl (mouse)): 0.849
- phosphorylation enrichment (c-Src): 0.665
- SH2 binding enrichment (Grb2 SH2): 0.684
- SH2 binding enrichment (SHP2-C SH2): 0.411
- SH2 binding enrichment (c-Src SH2): 0.93

Sequence: HISGVYKLPPD [ANGPTL7_Y145_R140H]
- phosphorylation enrichment (AncSZ): 1.79
- phosphorylation enrichment (EPHB1): 0.556
- phosphorylation enrichment (EPHB2): 0.6
- phosphorylation enrichment (FGFR1): 0.585
- phosphorylation enrichment (FGFR3): 0.67
- phosphorylation enrichment (Fer (mouse)): 0.618
- phosphorylation enrichment (Fes): 1.33
- phosphorylation enrichment (Fyn): 3.26
- phosphorylation enrichment (Hck): 0.718
- phosphorylation enrichment (Jak2): 1
- phosphorylation enrichment (MERTK): 0.725
- phosphorylation enrichment (c-Abl (mouse)): 0.697
- phosphorylation enrichment (c-Src): 2.3
- SH2 binding enrichment (Grb2 SH2): 0.957
- SH2 binding enrichment (SHP2-C SH2): 0.925
- SH2 binding enrichment (c-Src SH2): 0.459

Sequence: AVLSLYASGRN [ACTA1_Y145_T150N]
- phosphorylation enrichment (AncSZ): 0.858
- phosphorylation enrichment (EPHB1): 0.519
- phosphorylation enrichment (EPHB2): 0.557
- phosphorylation enrichment (FGFR1): 0.436
- phosphorylation enrichment (FGFR3): 0.581
- phosphorylation enrichment (Fer (mouse)): 0.549
- phosphorylation enrichment (Fes): 0.989
- phosphorylation enrichment (Fyn): 0.44
- phosphorylation enrichment (Hck): 0.688
- phosphorylation enrichment (Jak2): 0.958
- phosphorylation enrichment (MERTK): 0.388
- phosphorylation enrichment (c-Abl (mouse)): 0.737
- phosphorylation enrichment (c-Src): 0.419
- SH2 binding enrichment (Grb2 SH2): 0.867
- SH2 binding enrichment (SHP2-C SH2): 0.976
- SH2 binding enrichment (c-Src SH2): 0.669

Sequence: VGTKRYMASEV [ACVRL1_Y375_P378S]
- phosphorylation enrichment (AncSZ): 0.564
- phosphorylation enrichment (EPHB1): 0.406
- phosphorylation enrichment (EPHB2): 0.364
- phosphorylation enrichment (FGFR1): 0.411
- phosphorylation enrichment (FGFR3): 0.333
- phosphorylation enrichment (Fer (mouse)): 0.38
- phosphorylation enrichment (Fes): 0.602
- phosphorylation enrichment (Fyn): 0.4
- phosphorylation enrichment (Hck): 0.398
- phosphorylation enrichment (Jak2): 0.533
- phosphorylation enrichment (MERTK): 0.389
- phosphorylation enrichment (c-Abl (mouse)): 0.509
- phosphorylation enrichment (c-Src): 0.513
- SH2 binding enrichment (Grb2 SH2): 1.06
- SH2 binding enrichment (SHP2-C SH2): 0.599
- SH2 binding enrichment (c-Src SH2): 0.45

Sequence: SDLTDYLMKIL [ACTA1_Y190_R185S]
- phosphorylation enrichment (AncSZ): 1.14
- phosphorylation enrichment (EPHB1): 0.578
- phosphorylation enrichment (EPHB2): 0.648
- phosphorylation enrichment (FGFR1): 0.532
- phosphorylation enrichment (FGFR3): 0.732
- phosphorylation enrichment (Fer (mouse)): 0.582
- phosphorylation enrichment (Fes): 1.22
- phosphorylation enrichment (Fyn): 0.535
- phosphorylation enrichment (Hck): 0.571
- phosphorylation enrichment (Jak2): 1.1
- phosphorylation enrichment (MERTK): 0.445
- phosphorylation enrichment (c-Abl (mouse)): 0.789
- phosphorylation enrichment (c-Src): 0.507
- SH2 binding enrichment (Grb2 SH2): 1.16
- SH2 binding enrichment (SHP2-C SH2): 0.903
- SH2 binding enrichment (c-Src SH2): 0.608

Sequence: PEADKYRLPYA [FGG_Y300_T303P]
- phosphorylation enrichment (AncSZ): 0.763
- phosphorylation enrichment (EPHB1): 0.89
- phosphorylation enrichment (EPHB2): 0.715
- phosphorylation enrichment (FGFR1): 0.439
- phosphorylation enrichment (FGFR3): 0.552
- phosphorylation enrichment (Fer (mouse)): 0.521
- phosphorylation enrichment (Fes): 1
- phosphorylation enrichment (Fyn): 0.467
- phosphorylation enrichment (Hck): 0.598
- phosphorylation enrichment (Jak2): 1.33
- phosphorylation enrichment (MERTK): 0.477
- phosphorylation enrichment (c-Abl (mouse)): 0.571
- phosphorylation enrichment (c-Src): 0.488
- SH2 binding enrichment (Grb2 SH2): 0.741
- SH2 binding enrichment (SHP2-C SH2): 0.612
- SH2 binding enrichment (c-Src SH2): 0.402

Sequence: QEGPEYWDEET [HLA-A_Y83_Q86E]
- phosphorylation enrichment (AncSZ): 2.5
- phosphorylation enrichment (EPHB1): 1.25
- phosphorylation enrichment (EPHB2): 1.25
- phosphorylation enrichment (FGFR1): 1.24
- phosphorylation enrichment (FGFR3): 1.33
- phosphorylation enrichment (Fer (mouse)): 0.951
- phosphorylation enrichment (Fes): 1.88
- phosphorylation enrichment (Fyn): 1.02
- phosphorylation enrichment (Hck): 1.05
- phosphorylation enrichment (Jak2): 1.38
- phosphorylation enrichment (MERTK): 1.07
- phosphorylation enrichment (c-Abl (mouse)): 1.32
- phosphorylation enrichment (c-Src): 0.796
- SH2 binding enrichment (Grb2 SH2): 0.91
- SH2 binding enrichment (SHP2-C SH2): 0.699
- SH2 binding enrichment (c-Src SH2): 0.646
